Data: patent US20220324922A1

Target: GluN2B-containing NMDA receptor (GluN1a/GluN2B)
Experiment: cell-based or functional assay

ADTDYADGSEDKVVE [Con-G-like APP (cAPP)]
inhibition of receptor currents, two-electrode voltage clamp, Xenopus oocytes: < 30%
